Assay results from article PMC10977726 (PLOS ONE, 2024).

Legend:
Settings in all cases: both partners purified
[1] = target: T1, human IgG Fc (Biotin-SP-ChromPure Human IgG, Fc fragment) (human, biotin (Biotin-SP)); test: SPR; […]; Biacore S200, […] (PBS with 0.05% Tween 20, pH 7.4); […]
[2] = target: T1, human IgG Fc (Biotin-SP-ChromPure Human …); test: ELISA; […], room temperature; […]
[3] = target: T1, human IgG Fc (Biotin-SP-ChromPure Human …); test: SPR
biotin-PDGF-bb = target: T2, biotin-PDGF-bb (human, UniProt P01127 82-190, biotin); test: SPR; […]; Biacore S200, […] (PBS with 0.05% Tween 20, pH 7.4); […]
T2 construct: also called human platelet-derived growth factor

biotin-Ly6E-rat IgG2b Fc = target: T3, biotin-Ly6E-rat IgG2b Fc (human | rat, biotin); test: as above
T3 chain: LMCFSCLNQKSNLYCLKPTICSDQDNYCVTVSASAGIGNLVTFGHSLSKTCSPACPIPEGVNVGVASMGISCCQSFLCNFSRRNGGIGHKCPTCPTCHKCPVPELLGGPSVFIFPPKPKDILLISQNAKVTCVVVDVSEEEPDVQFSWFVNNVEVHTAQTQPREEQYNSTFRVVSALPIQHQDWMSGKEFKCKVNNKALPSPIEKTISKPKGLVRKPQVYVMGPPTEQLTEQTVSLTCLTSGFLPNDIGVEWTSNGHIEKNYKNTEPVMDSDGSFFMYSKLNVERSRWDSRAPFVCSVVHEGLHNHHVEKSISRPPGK

T2 sequence (P01127 82-190): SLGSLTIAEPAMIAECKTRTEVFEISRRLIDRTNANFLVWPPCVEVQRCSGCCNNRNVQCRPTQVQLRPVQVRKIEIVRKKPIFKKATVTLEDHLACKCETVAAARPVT

Binder: GCQAHYWYRVWFCKQDSDCLAGCVCGPNGFCG (designed binder) [Ig-EET-1]
- Kd [1]: 228 nM
- IC50 [2]: 447 nM

Binder: VGECVRGRCSSISCCSQFGYCGKGPKYCG (designed binder) [Ig-AMP-4]
- Kd [1]: > 1000 nM
- IC50 [2]: 151 nM

Binder: GECKGKGAKCSSISIHDAHCCTGSCRSGKC (designed binder) [recombinant Ig-CON-5 after TEV protease digestion]
- Kd [3]: 10 nM

Binder: VGECVRGRCSQISCCSQFGYCGKGPKYCG (designed binder) [Ig-AMP-3]
- Kd [1]: 353 nM
- IC50 [2]: 62 nM

Binder: VGECVRGRCSAISCCSQFGYCGKGPKYCG (designed binder) [Ig-AMP-2]
- IC50 [2]: 41 nM

Binder: GCAFEGESCNVQFYPCCVSMKLMCIPGNPDGTCYYL (designed binder) [P-AST-3]
- Kd (biotin-PDGF-bb): > 50000 nM

Binder: GCGYWYMQWFCKQDSDCLAGCVCRPKPECG (designed binder) [Ig-EET-4]
- Kd [1]: 948 nM
- IC50 [2]: 823 nM

Binder: GCNMYSGPWRYFCKQDSDCLAGCVCGPNGFCG (designed binder) [L-EET-5]
- Kd (biotin-Ly6E-rat IgG2b Fc): > 20000 nM

Binder: GCAIYHMGWMFQCKQDSDCLAGCVCGPNGFCG (designed binder) [L-EET-7]
- Kd (biotin-Ly6E-rat IgG2b Fc): 22 nM

Binder: VGECVRGRCSKISCCSQFGYCGKGPKYCG (designed binder) [Ig-AMP-1]
- Kd [1]: 243 nM
- IC50 [2]: 55 nM

Binder: GCQIYQSQWSYLCKQDSDCLAGCVCGPNGFCG (designed binder) [L-EET-8]
- Kd (biotin-Ly6E-rat IgG2b Fc): > 20000 nM

Binder: CKGKGAKCSRLMYDCCTGSCRSGKC [WT CON]
- Kd [1]: > 20000 nM
